The values that follow come from patent publication US20120122958, “TRANSCRIPTIONAL REPRESSION LEADING TO PARKINSON'S DISEASE” (published 2012).

The labels stand for the following.
B1: IRS2-WT (dsDNA)
DNA 1: ACATACAGGCTATTTTGTTGATTAAAC
DNA 2: GTTTAATCAACAAAATAGCCTGTATGT
B2: IRS3-WT (dsDNA)
DNA 1: GCCACTTGCTTGTTTTGGAAGGAAAAT
DNA 2: ATTTTCCTTCCAAAACAAGCAAGTGGC
B3: IRS1-WT (dsDNA)
DNA 1: AGTGTGTTGGTATTTTTCCCTCAGTTC
DNA 2: GAACTGAGGGAAAAATACCAACACACT

Chain of PARIS (ZNF746) (Q6NUN9 whole entry): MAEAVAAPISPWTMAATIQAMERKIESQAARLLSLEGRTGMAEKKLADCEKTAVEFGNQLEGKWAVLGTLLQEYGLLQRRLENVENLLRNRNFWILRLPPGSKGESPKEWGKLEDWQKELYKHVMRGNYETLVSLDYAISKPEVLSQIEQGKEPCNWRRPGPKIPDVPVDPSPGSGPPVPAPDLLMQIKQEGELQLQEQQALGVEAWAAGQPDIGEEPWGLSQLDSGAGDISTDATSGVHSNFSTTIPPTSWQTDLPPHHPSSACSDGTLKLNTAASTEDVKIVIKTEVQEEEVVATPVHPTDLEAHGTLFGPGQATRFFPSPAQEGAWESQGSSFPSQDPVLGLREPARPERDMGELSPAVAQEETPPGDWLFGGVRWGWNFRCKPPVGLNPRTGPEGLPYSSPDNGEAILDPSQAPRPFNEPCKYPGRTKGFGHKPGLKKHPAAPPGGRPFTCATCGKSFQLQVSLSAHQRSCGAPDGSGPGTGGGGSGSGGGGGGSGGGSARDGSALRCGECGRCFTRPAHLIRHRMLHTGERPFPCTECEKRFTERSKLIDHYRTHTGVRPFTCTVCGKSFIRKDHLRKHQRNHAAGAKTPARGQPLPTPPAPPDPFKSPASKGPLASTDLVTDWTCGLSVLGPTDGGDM

The series concerns the target PARIS (ZNF746) (Homo sapiens, UniProt Q6NUN9 SEQ:1-644). As to the kind of experiment: EMSA; competed by unlabeled WT oligo. Conditions: tags: GST; label: 32P. A general note: A gel shift assay detects complexes by their altered migration in electrophoresis.
As to B1, the binding result is reported as “binds”.
The entry for B2 is “binds”; for B3 it is “binds”.
